From patent publication US20020052480A1

Columns and labels:
[1] = target: human fibroblast activation protein alpha (FAP), on the cell surface (HT-1080FAP clone 33, 293FAP I/2, MF-SH cells, tumor stromal fibroblasts) (human) (UniProt Q12884); test: flow cytometry, HT-1080FAP clone 33 cells, antibody at 100 ng/ml, anti-human IgG FITC
[2] = target: human fibroblast activation protein alpha (FAP), on the cell surface (HT-1080FAP clone 33, 293FAP I/2, MF-SH cells, tumor stromal fibroblasts) (human) (UniProt Q12884); test: flow cytometry competition against 1 µg/ml biotinylated cF19 on HT-1080FAP clone 33 cells; competitor at 31.66 µg/ml
[3] = target: human fibroblast activation protein alpha (FAP), on the cell surface (HT-1080FAP clone 33, 293FAP I/2, MF-SH cells, tumor stromal fibroblasts) (human) (UniProt Q12884); test: flow cytometry, HT-1080FAP clone 33 cells, biotinylated antibody at 40.0 ng/ml, streptavidin-FITC
[4] = target: human fibroblast activation protein alpha (FAP), on the cell surface (HT-1080FAP clone 33, 293FAP I/2, MF-SH cells, tumor stromal fibroblasts) (human) (UniProt Q12884); test: flow cytometry, HT-1080FAP clone 33 cells, antibody at 0.8 ng/ml, anti-human IgG FITC
[5] = target: human fibroblast activation protein alpha (FAP), on the cell surface (HT-1080FAP clone 33, 293FAP I/2, MF-SH cells, tumor stromal fibroblasts) (human) (UniProt Q12884); test: flow cytometry, HT-1080FAP clone 33 cells, antibody at 500 ng/ml, anti-human IgG FITC
[6] = target: human fibroblast activation protein alpha (FAP), on the cell surface (HT-1080FAP clone 33, 293FAP I/2, MF-SH cells, tumor stromal fibroblasts) (human) (UniProt Q12884); test: flow cytometry, HT-1080FAP clone 33 cells, biotinylated antibody at 1.6 ng/ml, streptavidin-FITC
[7] = target: human fibroblast activation protein alpha (FAP), on the cell surface (HT-1080FAP clone 33, 293FAP I/2, MF-SH cells, tumor stromal fibroblasts) (human) (UniProt Q12884); test: flow cytometry competition against 1 µg/ml biotinylated cF19 on HT-1080FAP clone 33 cells; competitor at 3.16 µg/ml
[8] = target: human fibroblast activation protein alpha (FAP), on the cell surface (HT-1080FAP clone 33, 293FAP I/2, MF-SH cells, tumor stromal fibroblasts) (human) (UniProt Q12884); test: flow cytometry competition against 1 µg/ml biotinylated cF19 on HT-1080FAP clone 33 cells; competitor at 1.00 µg/ml
[9] = target: human fibroblast activation protein alpha (FAP), on the cell surface (HT-1080FAP clone 33, 293FAP I/2, MF-SH cells, tumor stromal fibroblasts) (human) (UniProt Q12884); test: flow cytometry, HT-1080FAP clone 33 cells, biotinylated antibody at 200.0 ng/ml, streptavidin-FITC
[10] = target: human fibroblast activation protein alpha (FAP), on the cell surface (HT-1080FAP clone 33, 293FAP I/2, MF-SH cells, tumor stromal fibroblasts) (human) (UniProt Q12884); test: flow cytometry, HT-1080FAP clone 33 cells, biotinylated antibody at 8.0 ng/ml, streptavidin-FITC
[11] = target: human fibroblast activation protein alpha (FAP), on the cell surface (HT-1080FAP clone 33, 293FAP I/2, MF-SH cells, tumor stromal fibroblasts) (human) (UniProt Q12884); test: flow cytometry, HT-1080FAP clone 33 cells, biotinylated antibody at 1,000.0 ng/ml, streptavidin-FITC
[12] = target: human fibroblast activation protein alpha (FAP), on the cell surface (HT-1080FAP clone 33, 293FAP I/2, MF-SH cells, tumor stromal fibroblasts) (human) (UniProt Q12884); test: flow cytometry, MF-SH cells (endogenous FAP), antibody at 4,000 ng/ml
[13] = target: human fibroblast activation protein alpha (FAP), on the cell surface (HT-1080FAP clone 33, 293FAP I/2, MF-SH cells, tumor stromal fibroblasts) (human) (UniProt Q12884); test: flow cytometry, HT-1080FAP clone 33 cells, antibody at 20 ng/ml, anti-human IgG FITC
[14] = target: human fibroblast activation protein alpha (FAP), on the cell surface (HT-1080FAP clone 33, 293FAP I/2, MF-SH cells, tumor stromal fibroblasts) (human) (UniProt Q12884); test: flow cytometry competition against 1 µg/ml biotinylated cF19 on HT-1080FAP clone 33 cells; competitor at 10.00 µg/ml
[15] = target: human fibroblast activation protein alpha (FAP), on the cell surface (HT-1080FAP clone 33, 293FAP I/2, MF-SH cells, tumor stromal fibroblasts) (human) (UniProt Q12884); test: flow cytometry, HT-1080FAP clone 33 cells, antibody at 4.0 ng/ml, anti-human IgG FITC
[16] = target: human fibroblast activation protein alpha (FAP), on the cell surface (HT-1080FAP clone 33, 293FAP I/2, MF-SH cells, tumor stromal fibroblasts) (human) (UniProt Q12884); test: flow cytometry, HT-1080FAP clone 33 cells, biotinylated antibody at 5,000.0 ng/ml, streptavidin-FITC

UniProt Q12884, sequence (Q12884 whole entry): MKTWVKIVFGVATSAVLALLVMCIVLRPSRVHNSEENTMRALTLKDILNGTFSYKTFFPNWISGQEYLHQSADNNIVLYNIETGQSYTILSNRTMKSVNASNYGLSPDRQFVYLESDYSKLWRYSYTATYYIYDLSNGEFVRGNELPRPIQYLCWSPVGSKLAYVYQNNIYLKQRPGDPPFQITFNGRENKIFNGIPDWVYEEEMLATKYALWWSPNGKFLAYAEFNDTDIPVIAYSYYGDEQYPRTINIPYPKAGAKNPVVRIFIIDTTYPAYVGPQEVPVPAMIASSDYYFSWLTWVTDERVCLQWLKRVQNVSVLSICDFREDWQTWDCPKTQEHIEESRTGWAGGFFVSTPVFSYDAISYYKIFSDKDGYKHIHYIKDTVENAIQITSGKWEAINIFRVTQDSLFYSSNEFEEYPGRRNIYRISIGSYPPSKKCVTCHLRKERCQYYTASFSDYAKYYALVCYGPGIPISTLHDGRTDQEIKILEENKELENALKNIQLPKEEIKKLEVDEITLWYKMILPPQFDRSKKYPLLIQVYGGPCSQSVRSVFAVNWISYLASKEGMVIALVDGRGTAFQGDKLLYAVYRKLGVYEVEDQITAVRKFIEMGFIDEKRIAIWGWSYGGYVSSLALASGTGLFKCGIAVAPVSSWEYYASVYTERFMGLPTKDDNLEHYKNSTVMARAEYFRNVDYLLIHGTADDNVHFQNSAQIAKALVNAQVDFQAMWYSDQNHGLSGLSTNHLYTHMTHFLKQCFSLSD

Substance: hIgG1 (human immunoglobulin, IgG1 subclass), isotype control (antibody)
- Mean fluorescence intensity [1]: 0.12
- Mean fluorescence concentration [2]: 10.3
- Mean fluorescence intensity [3]: 0.2
- Mean fluorescence intensity [4]: 0.12
- Mean fluorescence intensity [5]: 0.12
- Mean fluorescence intensity [6]: 0.3
- Mean fluorescence concentration [7]: 11.3
- Mean fluorescence concentration [8]: 9
- Mean fluorescence intensity [9]: 0.2
- Mean fluorescence intensity [10]: 0.2
- Mean fluorescence intensity [11]: 0.2
- Mean fluorescence intensity [12]: 0.6
- Mean fluorescence intensity [13]: 0.12
- Mean fluorescence concentration [14]: 9.8
- Mean fluorescence intensity [15]: 0.12
- Mean fluorescence intensity [16]: 0.2
